In article PMC4932917, “Structural basis for acyl-group discrimination by human Gcn5L2” (Acta Crystallographica. Section D, Structural Biology, 2016):

Substrate: CC(=O)SCCNC(=O)CCNC(=O)[C@H](O)C(C)(C)COP(=O)(O)OP(=O)(O)OC[C@H]1O[C@@H](n2cnc3c(N)ncnc32)[C@H](O)[C@@H]1OP(=O)(O)O
Assay: purified protein
Details: acyl-CoA site of the active site

B1: human Gcn5L2 (hsGcn5L2) (Homo sapiens) (protein)
chain: GIIEFHVIGNSLTPKANRRVLLWLVGLQNVFSHQLPRMPKEYIARLVFDPKHKTLALIKDGRVIGGICFRMFPTQGFTEIVFCAVTSNEQVKGYGTHLMNHLKEYHIKHNILYFLTYADEYAIGYFKKQGFSKDIKVPKSRYLGYIKDYEGATLMECELNPRIPYT
Question: How did the Km turn out when B1 was run?
Answer: 0.91 ± 0.09 µM
